B1: mAb11002 (antibody, V domains shown)
VH: EVQLVESGGGLVQPGGSLRLSCAASGFTVSSNYMSWVRQAPGKGLEWVSVIYSGGSTFYADSVKGRFTISRHNSKNTLYLQMNSLRAEDTAVYYCAREGYGMDVWGQGTTVTVSS
VL: not shown
B2: mAb10978 (antibody)
heavy chain: QVQLVESGGGVVQPGRSLRLSCAASGFTFSSYAMHWVRQAPGKGLEWVAVISYDGSNKYYADSVKGRFTISRDNSKNTLYLQMNSLRAEDTAVYYCARDGRTITMVRGVIDDAFDIWGQGTMVTVSSASTKGPSVFPLAPCSRSTSESTAALGCLVKDYFPEPVTVSWNSGALTSGVHTFPAVLQSSGLYSLSSVVTVPSSSLGTKTYTCNVDHKPSNTKVDKRVESKYGPPCPPCPAPGGGGPSVFLFPPKPKDTLMISRTPEVTCVVVDVSQEDPEVQFNWYVDGVEVHNAKTKPREEQFNSTYRVVSVLTVLHQDWLNGKEYKCKVSNKGLPSSIEKTISKAKGQPREPQVYTLPPSQEEMTKNQVSLTCLVKGFYPSDIAVEWESNGQPENNYKTTPPVLDSDGSFFLYSRLTVDKSRWQEGNVFSCSVMHEALHNHYTQKSLSLSLGK
light chain: not shown

Tests used:
[1] = molecular target: SARS-COV-2 spike protein receptor binding domain (amino acids Arg319 to Phe541) expressed with the F (SARS-CoV-2)
SARS-COV-2 RBD-hFc = SARS-COV-2 RBD-hFc (SARS-CoV-2)

Binder | Kd [1] | t½ [1] | IC50 (read off the curve) (SARS-COV-2 RBD-hFc)
B1 | 16.7 nM | 2.6 min | 
B2 |  |  | ~0.1 nM
